T1: EsCas13d, nuclease-dead (Eubacterium siraeum, UniProt B0MS50, R295A;H300A;R849A;H854A)
T1 sequence: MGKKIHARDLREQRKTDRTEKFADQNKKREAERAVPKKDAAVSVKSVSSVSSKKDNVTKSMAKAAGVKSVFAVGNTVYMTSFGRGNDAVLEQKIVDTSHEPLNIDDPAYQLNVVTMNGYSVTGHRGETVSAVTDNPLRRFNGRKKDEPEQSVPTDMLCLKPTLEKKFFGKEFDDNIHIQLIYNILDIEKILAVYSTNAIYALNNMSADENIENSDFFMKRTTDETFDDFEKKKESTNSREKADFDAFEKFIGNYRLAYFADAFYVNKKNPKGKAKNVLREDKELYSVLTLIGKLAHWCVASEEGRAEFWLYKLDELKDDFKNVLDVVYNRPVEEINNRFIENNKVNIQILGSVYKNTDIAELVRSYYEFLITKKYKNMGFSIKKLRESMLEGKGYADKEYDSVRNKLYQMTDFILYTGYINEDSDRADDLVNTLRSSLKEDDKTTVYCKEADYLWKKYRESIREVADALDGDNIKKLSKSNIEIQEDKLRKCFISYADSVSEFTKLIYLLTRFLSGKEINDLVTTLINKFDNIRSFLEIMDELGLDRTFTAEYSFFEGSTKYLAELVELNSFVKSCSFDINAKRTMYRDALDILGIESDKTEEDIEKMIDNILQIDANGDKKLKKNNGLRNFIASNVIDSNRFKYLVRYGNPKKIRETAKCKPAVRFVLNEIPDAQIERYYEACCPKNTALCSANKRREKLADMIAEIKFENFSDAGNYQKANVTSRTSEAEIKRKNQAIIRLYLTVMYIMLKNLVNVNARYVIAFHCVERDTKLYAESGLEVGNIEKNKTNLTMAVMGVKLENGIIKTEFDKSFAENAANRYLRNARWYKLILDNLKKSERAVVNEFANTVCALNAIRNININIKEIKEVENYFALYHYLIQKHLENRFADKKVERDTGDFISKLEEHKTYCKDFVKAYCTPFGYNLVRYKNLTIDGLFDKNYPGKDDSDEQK

B1: target 1 G5A,U8A (mixed)
RNA 1: CACCCGUGCAAAAAUGCAGGGGUCUAAAACUGAGCGGAUAACCUCUCUAUGG
RNA 2: GGGAAUGGAUCCACAUCUACGAAUUCGUACCAUAGAGAGGUUAACCACUCACCGAGAUCGGAAGAGCACACGU
B2: target 1 A9U,A16G (mixed)
RNA 1: CACCCGUGCAAAAAUGCAGGGGUCUAAAACUGAGCGGAUAACCUCUCUAUGG
RNA 2: GGGAAUGGAUCCACAUCUACGAAUUCGUACCAUAGGGAGGUUUUCCGCUCACCGAGAUCGGAAGAGCACACGU
B3: target 1 insU 3' of 20,insU 3' of 7 (mixed)
RNA 1: CACCCGUGCAAAAAUGCAGGGGUCUAAAACUGAGCGGAUAACCUCUCUAUGG
RNA 2: GGGAAUGGAUCCACAUCUACGAAUUCGUACCAUUAGAGAGGUUAUCUCGCUCACCGAGAUCGGAAGAGCACACGU
B4: target 1 insG 3' of 8,insU 3' of 5 (mixed)
RNA 1: CACCCGUGCAAAAAUGCAGGGGUCUAAAACUGAGCGGAUAACCUCUCUAUGG
RNA 2: GGGAAUGGAUCCACAUCUACGAAUUCGUACCAUAGAGAGGUUAUGCCGUCUCACCGAGAUCGGAAGAGCACACGU
B5: target 1 insG 3' of 22,insA 3' of 5 (mixed)
RNA 1: CACCCGUGCAAAAAUGCAGGGGUCUAAAACUGAGCGGAUAACCUCUCUAUGG
RNA 2: GGGAAUGGAUCCACAUCUACGAAUUCGUACGCAUAGAGAGGUUAUCCGACUCACCGAGAUCGGAAGAGCACACGU
B6: target 1 del5 (mixed)
RNA 1: CACCCGUGCAAAAAUGCAGGGGUCUAAAACUGAGCGGAUAACCUCUCUAUGG
RNA 2: GGGAAUGGAUCCACAUCUACGAAUUCGUACCAUAGAGAGGUUAUCCCUCACCGAGAUCGGAAGAGCACACGU
B7: target 1 U8G,U11A (mixed)
RNA 1: CACCCGUGCAAAAAUGCAGGGGUCUAAAACUGAGCGGAUAACCUCUCUAUGG
RNA 2: GGGAAUGGAUCCACAUCUACGAAUUCGUACCAUAGAGAGGAUAGCCGCUCACCGAGAUCGGAAGAGCACACGU
B8: target 1 insC 3' of 14,insA 3' of 10 (mixed)
RNA 1: CACCCGUGCAAAAAUGCAGGGGUCUAAAACUGAGCGGAUAACCUCUCUAUGG
RNA 2: GGGAAUGGAUCCACAUCUACGAAUUCGUACCAUAGAGACGGUUAAUCCGCUCACCGAGAUCGGAAGAGCACACGU
B9: target 1 C6A,C22G (mixed)
RNA 1: CACCCGUGCAAAAAUGCAGGGGUCUAAAACUGAGCGGAUAACCUCUCUAUGG
RNA 2: GGGAAUGGAUCCACAUCUACGAAUUCGUAGCAUAGAGAGGUUAUCAGCUCACCGAGAUCGGAAGAGCACACGU
B10: target 1 insA 3' of 15,insA 3' of 10 (mixed)
RNA 1: CACCCGUGCAAAAAUGCAGGGGUCUAAAACUGAGCGGAUAACCUCUCUAUGG
RNA 2: GGGAAUGGAUCCACAUCUACGAAUUCGUACCAUAGAGAAGGUUAAUCCGCUCACCGAGAUCGGAAGAGCACACGU
B11: target 1 C4U (mixed)
RNA 1: CACCCGUGCAAAAAUGCAGGGGUCUAAAACUGAGCGGAUAACCUCUCUAUGG
RNA 2: GGGAAUGGAUCCACAUCUACGAAUUCGUACCAUAGAGAGGUUAUCCGUUCACCGAGAUCGGAAGAGCACACGU
B12: target 1 insU 3' of 22,insC 3' of 20 (mixed)
RNA 1: CACCCGUGCAAAAAUGCAGGGGUCUAAAACUGAGCGGAUAACCUCUCUAUGG
RNA 2: GGGAAUGGAUCCACAUCUACGAAUUCGUACUCACUAGAGAGGUUAUCCGCUCACCGAGAUCGGAAGAGCACACGU
B13: target 1 C7A,G17U (mixed)
RNA 1: CACCCGUGCAAAAAUGCAGGGGUCUAAAACUGAGCGGAUAACCUCUCUAUGG
RNA 2: GGGAAUGGAUCCACAUCUACGAAUUCGUACCAUAUAGAGGUUAUACGCUCACCGAGAUCGGAAGAGCACACGU
B14: target 1 C2G,A9U (mixed)
RNA 1: CACCCGUGCAAAAAUGCAGGGGUCUAAAACUGAGCGGAUAACCUCUCUAUGG
RNA 2: GGGAAUGGAUCCACAUCUACGAAUUCGUACCAUAGAGAGGUUUUCCGCUGACCGAGAUCGGAAGAGCACACGU
B15: target 1 del7,del13 (mixed)
RNA 1: CACCCGUGCAAAAAUGCAGGGGUCUAAAACUGAGCGGAUAACCUCUCUAUGG
RNA 2: GGGAAUGGAUCCACAUCUACGAAUUCGUACCAUAGAGAGUUAUCGCUCACCGAGAUCGGAAGAGCACACGU
B16: target 1 insG 3' of 21,insG 3' of 3 (mixed)
RNA 1: CACCCGUGCAAAAAUGCAGGGGUCUAAAACUGAGCGGAUAACCUCUCUAUGG
RNA 2: GGGAAUGGAUCCACAUCUACGAAUUCGUACCGAUAGAGAGGUUAUCCGCUGCACCGAGAUCGGAAGAGCACACGU
B17: target 1 A1G,C2U (mixed)
RNA 1: CACCCGUGCAAAAAUGCAGGGGUCUAAAACUGAGCGGAUAACCUCUCUAUGG
RNA 2: GGGAAUGGAUCCACAUCUACGAAUUCGUACCAUAGAGAGGUUAUCCGCUUGCCGAGAUCGGAAGAGCACACGU
B18: target 1 U8C,C21U (mixed)
RNA 1: CACCCGUGCAAAAAUGCAGGGGUCUAAAACUGAGCGGAUAACCUCUCUAUGG
RNA 2: GGGAAUGGAUCCACAUCUACGAAUUCGUACUAUAGAGAGGUUACCCGCUCACCGAGAUCGGAAGAGCACACGU
B19: target 1 insA 3' of 19,insU 3' of 17 (mixed)
RNA 1: CACCCGUGCAAAAAUGCAGGGGUCUAAAACUGAGCGGAUAACCUCUCUAUGG
RNA 2: GGGAAUGGAUCCACAUCUACGAAUUCGUACCAUAAGUAGAGGUUAUCCGCUCACCGAGAUCGGAAGAGCACACGU
B20: target 1 C2U (mixed)
RNA 1: CACCCGUGCAAAAAUGCAGGGGUCUAAAACUGAGCGGAUAACCUCUCUAUGG
RNA 2: GGGAAUGGAUCCACAUCUACGAAUUCGUACCAUAGAGAGGUUAUCCGCUUACCGAGAUCGGAAGAGCACACGU
B21: target 1 G15A (mixed)
RNA 1: CACCCGUGCAAAAAUGCAGGGGUCUAAAACUGAGCGGAUAACCUCUCUAUGG
RNA 2: GGGAAUGGAUCCACAUCUACGAAUUCGUACCAUAGAAAGGUUAUCCGCUCACCGAGAUCGGAAGAGCACACGU
B22: target 1 insU 3' of 17,insG 3' of 16 (mixed)
RNA 1: CACCCGUGCAAAAAUGCAGGGGUCUAAAACUGAGCGGAUAACCUCUCUAUGG
RNA 2: GGGAAUGGAUCCACAUCUACGAAUUCGUACCAUAGUAGGAGGUUAUCCGCUCACCGAGAUCGGAAGAGCACACGU
B23: target 1 insG 3' of 22,insA 3' of 13 (mixed)
RNA 1: CACCCGUGCAAAAAUGCAGGGGUCUAAAACUGAGCGGAUAACCUCUCUAUGG
RNA 2: GGGAAUGGAUCCACAUCUACGAAUUCGUACGCAUAGAGAGAGUUAUCCGCUCACCGAGAUCGGAAGAGCACACGU
B24: target 1 insA 3' of 11,insU 3' of 2 (mixed)
RNA 1: CACCCGUGCAAAAAUGCAGGGGUCUAAAACUGAGCGGAUAACCUCUCUAUGG
RNA 2: GGGAAUGGAUCCACAUCUACGAAUUCGUACCAUAGAGAGGUAUAUCCGCUCUACCGAGAUCGGAAGAGCACACGU
B25: target 1 insC 3' of 9,insA 3' of 6 (mixed)
RNA 1: CACCCGUGCAAAAAUGCAGGGGUCUAAAACUGAGCGGAUAACCUCUCUAUGG
RNA 2: GGGAAUGGAUCCACAUCUACGAAUUCGUACCAUAGAGAGGUUACUCCAGCUCACCGAGAUCGGAAGAGCACACGU
B26: target 1 insA 3' of 21,insU 3' of 4 (mixed)
RNA 1: CACCCGUGCAAAAAUGCAGGGGUCUAAAACUGAGCGGAUAACCUCUCUAUGG
RNA 2: GGGAAUGGAUCCACAUCUACGAAUUCGUACCAAUAGAGAGGUUAUCCGCUUCACCGAGAUCGGAAGAGCACACGU
B27: target 1 G12U,C22U (mixed)
RNA 1: CACCCGUGCAAAAAUGCAGGGGUCUAAAACUGAGCGGAUAACCUCUCUAUGG
RNA 2: GGGAAUGGAUCCACAUCUACGAAUUCGUAUCAUAGAGAGUUUAUCCGCUCACCGAGAUCGGAAGAGCACACGU
B28: target 1 A1G,G15A (mixed)
RNA 1: CACCCGUGCAAAAAUGCAGGGGUCUAAAACUGAGCGGAUAACCUCUCUAUGG
RNA 2: GGGAAUGGAUCCACAUCUACGAAUUCGUACCAUAGAAAGGUUAUCCGCUCGCCGAGAUCGGAAGAGCACACGU

What follows are binders tested against T1, EsCas13d, nuclease-dead (assay: crRNA (strand 1, pre-loaded); Mg2+; 40 mM Tris-HCl pH 7.5, 150 mM NaCl, 6 mM MgCl2, 1 mM DTT, 0.1% Tween-20, 0.2 mg/ml BSA; 25 C; 10 min per concentration, then washed). Conditions: tags: His6-TwinStrep-SUMO cleaved; N-terminal SNAP kept (SNAP-Surface 488); label: 3' end held by stalled T7 RNA polymerase.
With B1 the Kd was 45 ± 4 nM.
B2 was tested, and the Kd was 67 ± 9 nM.
With B3 the Kd was 28.6 ± 1.5 nM.
In the case of B4, the Kd is reported as 15.7 ± 1.1 nM.
B5 gave a Kd of 23.1 ± 2.2 nM.
B6 showed a Kd of 10.4 ± 0.5 nM.
For B7, the Kd was 27.6 ± 2.2 nM.
In the case of B8, the Kd is reported as 55 ± 8 nM.
B9 was tested, and the Kd was 39 ± 5 nM.
Binder B10 has a Kd of 9.7 ± 0.6 nM.
B11 was tested, and the Kd was 30 ± 4 nM.
B12 was tested, and the Kd was 18.3 ± 1.4 nM.
Binder B13 has a Kd of 34 ± 6 nM.
In the case of B14, the Kd is reported as 8.7 ± 1 nM.
For B15, the Kd was 15.6 ± 1.3 nM.
Work on B16 yielded a Kd of 43 ± 6 nM.
For B17, the Kd was 8.7 ± 0.7 nM.
In the case of B18, the Kd is reported as 9.6 ± 0.5 nM.
B19 was tested, and the Kd was about 38 nM.
In the case of B20, the Kd is reported as 9.7 ± 0.7 nM.
B21 showed a Kd of 10.8 ± 0.4 nM.
B22 was tested, and the Kd was 44 ± 5 nM.
In the case of B23, the Kd is reported as 11.5 ± 0.7 nM.
B24 showed a Kd of 22.2 ± 1.1 nM.
With B25 the Kd was 14 ± 0.4 nM.
B26 was tested, and the Kd was 12.5 ± 1 nM.
With B27 the Kd was 21.7 ± 2.8 nM.
With B28 the Kd was 11.1 ± 0.5 nM.
